Reference: the DeepSol protein solubility set

Experiment: soluble on expression in E. coli; label from the status in PepcDB or PDB records

Sequence	soluble on expression in E. coli
MGSDKIHHHHHHAQYVVTGGSGSPMKASQSSGDSAERLEVYLVYGMDNVTISYTSSSSSSHQWYRYKTKRLEAEKVASTQNGTTSTIRNVEEGYGYFVEEGAVSRYVWIVDYSKYTLNISNLHVSDNSDPCSGLVLAGTGTIQPIYYYWPNTGTRRELSRQFDVIYNTLEYNSDKKEYTSKQETAVIEGNLFGKSIPAPWCDTEICVKGDYFARHFGKEVTLCIDEYQAAAVDAHIDTLLIEQEAPNMNTTKSGYCAPATVQFSAIANTPTAALFNWKIYRQGEEDNPVVRFTGEEVDYTFNQSGTFIIKLEVSDQSTTCSTEDEVQIDISESYLMIPNAFSPGTTPGINDEFRVAYKSLVKFKAWIFNRWGLQMYYWTDPAQGWDGKKGGKYVQPGVYFYVIEAEGSDGIKYKEKGDINILRPKTIQDENENIQE	not soluble
MGSDKIHHHHHHARTILREELAQNSINKYSVKQYCQASGVGRASFYSTYNGMPDLFCNTLQFEIRKHFQNYSDCNSRKLVYALLKEIGDHRIYYTNIYRLTNKNTSKIHICHQINHAFFTEMQKHLQNSNCSNKQIQSMTNIIFSRVVSWVAHNCKEKVLDVYVDLEYVLPSN	not soluble
MGSDKIHHHHHHASGGVEKINHIVVIYLENRSFDNMFGRFPGADGLEAAKGAPVQVDREGKPYTVLPPILDEKTKQPDPRFPAQIANAPFDIGPHVGQSEKHRDLVHRFYQNMEQINGGRNDKFAAWSDAGGLVMGTYDTSNTRLWALAREFTLADNFFQAAFGGSFLNHFWLICACTPQYEAAPASIRAQLDGDGHLVKDGAVTPDGYPVNTIFSFYPPYPPSATDLAKRLPPQTAPNIGDRLSGKNVSWAWYSGGYAAALEGRNQGNFQYHHQPFVYFASTGEGTKAKARHLKDEAPLFESVAAGRLESVVFYKPVGDENQHPGYADLASGDAKAARLVDAIRASALWKDTAIIITYDENGGFWDHVAPPKGDRWGPGTRIPALIISPYAKRGFVDHTVYDTTSILKLIETRFGLPPLGRRDAVANDLTAAFDFTSERR	not soluble
MGSDKIHHHHHHASTKVAKSKAKGKVIVYYVYGKRGHTGKYLWSKKTLTGKIGTTYHTKALDLLNDSGYMALASHSKNTSGKFTRKTTKVYYRYYDVIERDYEFKHEADLYMELTGDHRIGLFDRNLQDGVEVVVERTNFSKPYYDVSYSNRVDTGHGSGLKEFHYRFGSTHRFKDNRDGNIYTMALTNSGGITFHAVATKHSTMNELVQVSAHGKLLTAKIRK	not soluble
MGSDKIHHHHHHATWITTLGGMDWPRNKAVNASGIRRQQKELCDILDRLKAANFNTVLLQTRLRGDMIYPSAIETFGESLTGSTGGNPGYDPLAFAIGECHKRGMELHAWIVTIPAGNTRQVQLQGRSSVVRKNRTICKLYKGNWYLDPGNPGTKEYLSCIVKEITSRYDIDGIHFDYIRYPEQADNFPDKDTYRKYGKGKELKQWRRDNITDIVHRLYTDIKTIKPWVKVSSSPIGKYRDTNRYPSRGWNAYHVVYQDAQKWLKEGIHDALFPMMYFQGNNFYPFALDWKENCGNRWIVPGLGIYFLSPDEQNWPLDEIVRQLHFTRQIKLNGQAYFRNRFLLNNTKGIWDELQENFYTTPALIPPMTWMDSIPPSTPAMPSLQLLPDGKMHMSWQISTDNNGGLVTYHLYASDTYPVDITDAGNLLETYLTHTEYEYTPISPWRQKRYFAVTAADRFGNESAPLELNAISETDMPLLNDGDILTLPEIKEAKTVKIFTVTGEEIKYFVYAPQMSIASLPGGFYTVYILNNAGAQTFVGTIVK	not soluble
MGSDKIHHHHHHDDDNDYYRYALPNALVTVKPVADNSFFMQLDDSTTLLPVNMKNSPYGEKEVRALVNFDPVNESSGEYDKAVHINWIDSILTKPIAGDLGDKNDEVYGTDPVDMINDWVTIAEDGYLTLRFRTMWGNRSQAHFVNLLMSKDAENPYEVEFRHNAFGDVYGEPADGLVAFNLDSLPDTEGKTVKLKLKWKSFNGEKTAEFDYCTRKSTPANSAAITAGRSVLRLK	not soluble
MGSDKIHHHHHHDDNEIEIPKAPVLEKAQLALAIKSEEGAVTKTGETTPTDADVNTLTVGVFGVDGWSVIYTKDATPNSDGTKDVGPQEVYAGEAHVVVVANAAPVIQTELAKAKDITDFIETTINLSDETLTKGLTMSSKVLDVTLVANTTNYIGYDDEVGDITVKDISGKEVYGAGPVPLVRDVASIALAGADIGNPENANYESKSFVLKEVFIASAKGVSSVASTEEWGTIEKDFFGDTHFGYLDYKVGLLFLTSPNNIDEGSYKKGLQTKYDALAKKHVENDPALNHEFYVYENTKGEVKSGESNVNEAYANHTLLIVKGDYTYLPQGAKESITKENCYYAIPVGEEVTIDGTEKRSKFYVQRNYKYEISLTIIGPGSEIPYDPMISTNVSASVKVEPWNVKTIHEEVE	not soluble
MGSDKIHHHHHHDPLESMNRGIYKFNDTADKAVLKPIAGAYKAVLPSPIRTGVNNFFTNLGTFTSLVNNILQLELGKAMDNTGRLLINSTIGIGGLVDVASMDGVPNHRADFGQTLGKWGVGSGAYLVLPFLGPSTLRDTAGLTIDTLYFDPIQYTNHVRERNQLRMLSFIDLRSQYLPASDLIDDAALDPYIFMREAYLERRHQFVTGEASSFDDFDDDDEEVTPPEPQ	not soluble
MGSDKIHHHHHHDSVKTNTNPQQAIQGEWISYSESKINLPKTTSAADAHKLLDLTASTSEKIKFDKKKVTLATNEYDYKLGRQIIIGSYSYDYKLEHGQDILKFDTTSSDIGGNVYYRVGSKLEKEKTKEINDKEAKEKKSVTHLNEVWKAKTDIIEKSLKEAMIGTWSGHFKAVATTGQGVAWAPGMQTLTFDGGTNLSFHASSDSLTNFDQIVIHNAYASYQPNGILGLEPSDHIPVDPKKLLNIIKDLTAEQMFSRIKYIAFSYDVTTDTGTISQSFSPSELSYKNGKLSFDTALLITQCGDEGVQISGDVSKTE	not soluble
MGSDKIHHHHHHEAKGHQTVKIDTVVSADKQTFLQFPGKVKAAQDISLAFRVSGTISKIHVKDGARVQEGQLLAELDPTDYQVQLDATEAEYQQIKAEAERVMALYKDNGTTPNANDKAVYGLKQITAKYKHHKDQLAYTRLYAPFNGYVQKRLFEAHETIGAGMPVIAMISGGTPEVEINLPAAEYIRREQFDNYHCTFDIYPGETYPLKLISVTPKANANQLYTMRLQVVPGTRAIPSPGMNTMVTILCRTEQENTLSVPTGAILQKEGKAYVFVFHPSSNTVHRQEVSILRLLNNGHSLITSRQLQPGEQIVSSGVHHIEDGEIVKPLSPVTNTNIGGLL	not soluble
MGSDKIHHHHHHENLYFQGAVDLDREGRDPAYVESIVKRSQKIVDKLELTDTVAAREVTTIIANRYFKLNDIYETRDAKVKLAKETLTGDAKQEAVKAAEAEKDAALYRTHFAFPADLSLYLDAKQIDAVKDGMTYGVVMVTYKATVDMIPTLKEEEKAQIMAWLVEAREFAMDAENSNKKHAAFGKYKGRINNYLSKRGYDLVKERKAWYERIKARGGKI	soluble
MGSDKIHHHHHHENLYFQGDSFKTKSGKELTITFIKHGSLMLTYDNHSIQVDPVSEYADYTTFPKADIILITHEHGDHLDPKAIQAVEKSDTEIIANENSQKKLGKGKVLKNGDTDTSISYMKIEAVPAYNTTPGRDKYHPRHRDNGYILTFDGLRVYIAGDTEDIPEMKDLKDIDIAFLPVNQPYTMTVSQAAKAARMFSPKILYPYHYGDTKIGELKDALKDSGIDVRIRELQ	soluble
MGSDKIHHHHHHESGDIITSDQMDEVDPVAGLNGMYAYLYKFDTMGYGDEAQHYDYGYHHILLCSDLWGQDMIQYSSKYGWYYTDYQFNQNSRAYQYISTFYFWNYLYKLIKSANDVLKTTTDDSKKEDRGQALGMRAFAYLTLVQMYQHTYAGHENAPAVPIVLETTEPDVLSNNPRASVKEVYDLIEKDLVQAHSDLSSYQRLNSTYIDQTVISGLLARMYLLKEDWTNAAKYAKEARASYGAPADKAELIDEGYIDMNKHHTWMFTSHITTDAEIVQTGIVNFISHISSTAYGYVTAGGMFKNISSELYSKIADNDIRKGWFADKDFTYEGGPMGSVALPKYANLKYMWYDLEGNNCNDLCYMRAEEMWLIEAEALAMGGNIAGGKSLLEEFVKTRQPDYVCDATDAKGIQDACWLQRRIEFWGEGIAWFDLKRLKKPIIRKYEGTNHNLDAQYDFPAEDDIFRILIPRKEIQDNNGIGEEDNNPMPNI	not soluble
MGSDKIHHHHHHETEAPQVTTSSRPAVEIKYNDPRDPFEEVNRTMWDFNYLFLDRYVIRPVAHGYKDYVPNPVRTGVNNFVYNLEEPSSLVNNTLQGKWGWAANAGGRFTVNTTIGLLGLVDVADMMGMHRKQDDFNEVLGYYGTPNGPYFMAPFYGPIVTREIASDWVDGLYFPLSELTIWQSVLKWGLKGLDARSKAIDQERLLDNALDPYAFVKDAYLQHMDYKVFDGDVPSSQADDELLDEYLDELE	not soluble
MGSDKIHHHHHHEVRSTFINFFREKKEHTYVHSSSVIPHDDPTLLFANAGMNQFKPLFLGIADPNSDLAKLKRAVNTQKCIRAGGKHNDLDDVGKDVYHHTYFEMLGNWSFGDYFKKEIITWAWELLTTVYGIPAERLYVSVFGGDEANGVPADSEARDIWRSVGVPDERILNFGMKDNFWEMGDVGPCGPCSEIHYDRIGNRDASHLVNADDPMVVEIWNLVFIQFNREEGGVLKPLPAKHIDCGLGLERLIAVMQDKTSNYDTDIFQPIFEAIHKGSGVRAYTGFIGDEDKDGVDMAYRVVADHVRTLTIALSDGGRPDNSGRGYVLRRILRRGVRYASEKLNAQPGFFASLVPVVISILGETFPELSRDPVTVMDIINDEEKQFLKTLSRGRVLFQRAVQSLPEGTMTFPGDVSWRLYDTYGFPADLTQLMAEEKGLSVDNTAFEEARRKAIETSSAGTGKFRDTLDLDVHALAELQQKGVPTTDDSPKYAYTFTGEGSDAVYKFEPCVGKILAIRRDGKFVDQLAAGEEGAILLDRTNFYAEQGGQIYDVGVLTKVNDESNEFNVSNCQVRGGYIVLVGSAEGSFSVGDQVNERFDEDRKQLIMKNHTGTHVLNYALRKVLADSDQKGSLVAPDRMRFDFTNKAGMTVQQVKKAEEYAQQLIDTKGQVYAKNSPLGEAKKVKGLRAMFDETYPDPVRVVAVGTPVEQLLQNPDAEEGQNTTVEFCGGTHLQNVSHIGRIVIASEEAIAKGIRRIVALTGPEAER	not soluble
MGSDKIHHHHHHGCSYGVGDDCLPPEEPVPIRMAIAEGKLSTRAPVTTIDASNLSNVGIYAVSEGSIAGQYPWTSTPFALNLVPSGISGSQLSFNPKLYYPLGGKRVIFYSYYPRTTATSGSNYITAPGNGVAPAYHFTLTGTEDIMYAAGTPTGSTSTMPVSLTFNHVLTQLQLNTSLLGALSSIKLLGVYNKGMLDIGNGNVTYDSSTTDITLTVPLLGSVTNTVMVPAGVASYKVEVVLLLSLLKRTYLVKPTSGNFQPGVIYTISL	not soluble
MGSDKIHHHHHHGDGNITTENIPVSEYDCLELEGGGMVVNYTQSDAPEGLEIKTDRNIFEKYEFNVENHKLKIRPKKEFRKHTNFRPTEFMVTANSRNLKKLAAAGSTHVNINSPLQAEEFEAGLAGSGIIQFHDTASFTNLKIEIAGSGDFVGHKVYCEELNGDMAGSNTIVLGGTVGIAEFSIAGSGTVRAFDCTMDELECKIAGSGDIEAFVVNKIKAEIAGSGSVKYKGDPQDIQKKVMGSGKIEKVE	not soluble
MGSDKIHHHHHHGNLGKYSIYYAQNLPHETGTNSVMTAVFKHLGDVYIPYNSLDNDGNKMLETEDKTIHYQAGGMFSPTMITVKSTKDGDVLLSLQSDSQFPYCIYDFTENTYYGFNRAGTLVAEFIDSNTNVLSSHRVSALNTVNKLQNEMYGPIISHRKVPKINLQFIYNFVNEGKFK	not soluble
